# Patent US20200255508A1
# How the values were obtained:
# [1] = biological target: cynomolgus monkey DLL4 extracellular domain (cynomolgus monkey); experiment: Biacore SPR
# [2] = biological target: cyno DLL4-his (cynomolgus monkey); experiment: ELISA on DLL4-his
Binder,Kd [1] [nM],koff [1] [s⁻¹],kon [1] [M⁻¹ s⁻¹],EC50 [2] [nM]
"E9.22 (antibody, V domains shown) VH: EVQLQESGPGLVKPSETLSLTCTVSGGSISNSRYHWGWIRQPPGKGLEWIGDIYYTGSTYYNPSLKGRVTISVDTSKNQFSLKLSSVTAADTAVYYCAREDVILRGGSDYWGQGTLVTVSS VL: SYELTQPPSVSVSPGQTASITCSGQRLGDKYASWYQQKPGQSPVLVIYEDSKRPSGIPERFSGSNSGDTATLTISGTQPMDEADYYCQAWDRDTGVFGYGTKVTVL",6.26,0.000352,56200,–
"E9-SE6 (antibody, V domains shown) VH: EVQLQESGPGLVKPGETLSLTCTVSGGSISSSSYYWGWIRQAPGKGLEWIGDIYYTGSTYYNPSLKSRVTISVDTSKNQFYLKLSSVRAEDTAVYYCAREDVILRGGSDYWGQGTLVTVSS VL: LYVLTQPPSVSVSPGQTASITCSGQRLGDKYASWYQQKPGQSPVLVIYEDSKRPSGIPERFSGSNSGDTATLTISGTQTMDEADYLCQAWDRDTGVFGGGTKVTVLG",6.55,–,–,0.13
"E9.14 (antibody, V domains shown) VH: EVQLQESGPGLVKPSETLSLTCTVSGGSISNSRYHWGWIRQSPGKGLEWIGDIYYTGSTYYNPSLKSRVTISVDTSKNQFSLKLSSVTAEDTAVYYCAREDVILRGGSDYWGQGTLVTVSS VL: SYELTQPPSVSVSPGQTASITCSGQRLGDKYASWYQQKPGQSPVLVIYEDSKRPSGIPERFSGSNSGDTATLTISGTQPMDEADYYCQAWDRDTGVFGYGTKVTVL",6.75,0.000386,57200,–
"E9-SE4 (antibody, V domains shown) VH: EVQLQESGPGLVKPSETLSLTCTVSGGSISSSSYYWGWIRQPPGKGLEWIGDIYYTGSTYYNPSLKSRVTISVDTSKNQFSLKLSSVTAADTAVYYCAREDVILRGGSDYWGQGTLVTVSS VL: LYVLTQPPSVSVSPGQTASITCSGQRLGDKYASWYQQKPGQSPVLVIYEDSKRPSGIPERFSGSNSGDTATLTISGTQTMDEADYLCQAWDRDTGVFGGGTKVTVLG",3.92,–,–,0.14
"E9.65 (antibody, V domains shown) VH: EVQLQESGPGLVKPSETLSLTCTVSGGSIRNSRYHWGWIRQPPGKGLEWIGDIYYTGSTYYNPSLKGRVTISVDTSKNQFSLKLSSVTAADTAVYYCAREDVILRGGSDYWGQGTLVTVSS VL: SYELTQPPSVSVSPGQTASITCSGQRLGDKYASWYQQKPGQSPVLVIYEDSKRPSGIPERFSGSNSGDTATLTISGTQPMDEADYYCQAWDRDTGVFGYGTKVTVL",12.9,0.000414,32100,–
"E9.48 (antibody, V domains shown) VH: EVQLQESGPGLVKPSETLSLTCTVSGGSISSSGYYWGWIRQPPGKGLEWIGDINYRGSTYYNPSLKSRVTISVDTSKNQFSLKLSSVTAADTAVYYCAREDVILRGGSDYWGQGTLVTVSS VL: SYELTQPPSVSVSPGQTASITCSGQRLGDKYASWYQQKPGQSPVLVIYEDSKRPSGIPERFSGSNSGDTATLTISGTQPMDEADYYCQAWDRDTGVFGYGTKVTVL",4.71,7.91e-05,16800,–
"E9-SE7 (antibody, V domains shown) VH: EVQLVESGGGLVQPGGSLRLSCAVSGGSISSSSYYWGWIRQAPGKGLEWIGDIYYTGSTYYNPSLKSRVTISVDTSKNSFYLQMNSLRAEDTAVYYCAREDVILRGGSDYWGQGTLVTVSS VL: EYVLTQSPDFQSVTPKEKVTITCSGQRLGDKYASWYQQKPDQSPKLVIYEDSKRPSGVPSRFSGSNSGDDATLTINSLEAEDAATYYCQAWDRDTGVFGQGTKVEIKR",7.53,–,–,0.12
"E9-SE5 (antibody, V domains shown) VH: EVQLQESGPGLVKPSETLSLTCTVSGGSISSSSYYWGWIRQPPGKGLEWIGDIYYTGSTYYNPSLKSRVTISVDTSKNQFSLKLSSVTAADTAVYYCAREDVILRGGSDYWGQGTLVTVSS VL: EYVLTQSPDFQSVTPKEKVTITCSGQRLGDKYASWYQQKPDQSPKLVIYEDSKRPSGVPSRFSGSNSGDDATLTINSLEAEDAATYYCQAWDRDTGVFGQGTKVEIKR",6.7,–,–,0.13
"E9-SE1 (antibody, V domains shown) VH: EVQLVESGGGLVQPGGSLRLSCAVSGGSISSSSYYWGWIRQAPGKGLEWIGDIYYTGSTYYNPSLKSRVTISVDTSKNSFYLQMNSLRAEDTAVYYCAREDVILRGGSDYWGQGTLVTVSS VL: LYVLTQPPSVSVSPGQTASITCSGQRLGDKYASWYQQKPGQSPVLVIYEDSKRPSGIPERFSGSNSGDTATLTISGTQTMDEADYLCQAWDRDTGVFGGGTKVTVLG",5.42,–,–,0.14
"E9-SE2 (antibody, V domains shown) VH: EVQLVESGGGLVQPGGSLRLSCAVSGGSISSSSYYWGWIRQAPGKGLEWIGDIYYTGSTYYNPSLKSRVTISVDTSKNSFYLQMNSLRAEDTAVYYCAREDVILRGGSDYWGQGTLVTVSS VL: SYELTQPPSVSVSPGQTASITCSGQRLGDKYASWYQQKPGQSPVLVIYEDSKRPSGIPERFSGSNSGDTATLTISGTQPMDEADYYCQAWDRDTGVFGYGTRVTVLG",3.68,–,–,0.14

# Binders with a lower Kd [1], results first:
Kd [1] [nM],koff [1] [s⁻¹],kon [1] [M⁻¹ s⁻¹],EC50 [2] [nM],Binder
0.25,3.44e-05,137000,–,"E9.4 (antibody, V domains shown) VH: EVQLQESGPGLVKPSETLSLTCTVSGGSISSSSYYWGWIRQPPGKGLEWIGDIYYTGSTYYNPSLKSRVTISVDTSKNQFSLKLSSVTAADTAVYYCARYDVSLGGSSDHWGQGTLVTVSS VL: SYELTQPPSVSVSPGQTASITCSGQRLGDKYASWYQQKPGQSPVLVIYEDSKRPSGIPERFSGSNSGDTATLTISGTQPMDEADYYCQAWDRDTGVFGYGTKVTVL"
3.42,–,–,0.14,"E9-SE3 (antibody, V domains shown) VH: EVQLQESGPGLVKPGETLSLTCTVSGGSISSSSYYWGWIRQAPGKGLEWIGDIYYTGSTYYNPSLKSRVTISVDTSKNQFYLKLSSVRAEDTAVYYCAREDVILRGGSDYWGQGTLVTVSS VL: SYELTQPPSVSVSPGQTASITCSGQRLGDKYASWYQQKPGQSPVLVIYEDSKRPSGIPERFSGSNSGDTATLTISGTQPMDEADYYCQAWDRDTGVFGYGTRVTVLG"
0.17,8.9e-06,53100,–,"E9.11 (antibody, V domains shown) VH: EVQLQESGPGLVKPSETLSLTCTVSGGSISSSSYYWGWIRQPPGKGLEWIGDIYYTGSTYYNPSLKSRVTISVDTSKNQFSLKLSSVTAADTAVYYCAREAVPLGGGSDYWGQGTLVTVSS VL: SYELTQPPSVSVSPGQTASITCSGQRLGDKYASWYQQKPGQSPVLVIYEDSKRPSGIPERFSGSNSGDTATLTISGTQPMDEADYYCQAWDRDTGVFGYGTKVTVL"
1.44,3.47e-05,24200,–,"E9.38 (antibody, V domains shown) VH: EVQLQESGPGLVKPSETLSLTCTVSGGSISSSSYYWGWIRQPPGKGLEWIGDIYYTGSTYYNPSLKSRVTISVDTSKNQFSLKLSSVTAADTAVYYCAREDVILRGGSDYWGQGTLVTVSS VL: SYELTQPPSVSVSPGQTASITCSGQRLGDKYVSWYQQKPGQSPVLVIYEDSKRPSGIPERFSGSNSGDTATLTISGTQPMDEADYYCQAWDRDVGVFGSGTKVTVL"
0.16,1.23e-05,75100,–,"E9.17 (antibody, V domains shown) VH: EVQLQESGPGLVKPSETLSLTCTVSGGSISSSSYYWGWIRQPPGKGLEWIGDIYYTGSTYYNPSLKSRVTISVDTSKNQFSLKLSSVTAADTAVYYCAREEAILGGGSDYWGQGTLVTVSS VL: SYELTQPPSVSVSPGQTASITCSGQRLGDKYASWYQQKPGQSPVLVIYEDSKRPSGIPERFSGSNSGDTATLTISGTQPMDEADYYCQAWDRDTGVFGYGTKVTVL"
0.14,9.1e-06,65500,–,"E9.66 (antibody, V domains shown) VH: EVQLQESGPGLVKPSETLSLTCTVSGGSISSSSYYWGWIRQPPGKGLEWIGDIYYTGSTYYNPSLKSRVTISVDTSKNQFSLKLSSVTAADTAVYYCAREGVPLGGGADKWGQGTLVTVSS VL: SYELTQPPSVSVSPGQTASITCSGQRLGDKYASWYQQKPGQSPVLVIYEDSKRPSGIPERFSGSNSGDTATLTISGTQPMDEADYYCQAWDRDTGVFGYGTKVTVL"
0.63,4.95e-05,79200,–,"E9.13 (antibody, V domains shown) VH: EVQLQESGPGLVKPSETLSLTCTVSGGSISSSSYYWGWIRQPPGKGLEWIGDIYYTGSTYYNPSLKSRVTISVDTSKNQFSLKLSSVTAADTAVYYCAREDVILRGGSDYWGQGTLVTVSS VL: SYELTQPPSVSVSPGQTASITCSGDTLGDKYVSWYQQKPGQSPVLVIYEDSERPSGIPERFSGSNSGDTATLTISGTQPMDEADYYCQAWDSETGVFGSGTKVTVL"
1,2.63e-05,26300,–,"E9.18 (antibody, V domains shown) VH: EVQLQESGPGLVKPSETLSLTCTVSGGSISSSGYYWGWIRQPPGKGLEWIGDINYAGSTYYNPSLKSRVTISVDTSKNQFSLKLSSVTAADTAVYYCAREDVILRGGSDYWGQGTLVTVSS VL: SYELTQPPSVSVSPGQTASITCSGQRLGDKYASWYQQKPGQSPVLVIYEDSKRPSGIPERFSGSNSGDTATLTISGTQPMDEADYYCQAWDRDTGVFGYGTKVTVL"
1.52,3.79e-05,24900,–,"E9.16 (antibody, V domains shown) VH: EVQLQESGPGLVKPSETLSLTCTVSGGSISSSSYYWGWIRQPPGKGLEWIGDIYYTGSTYYNPSLKSRVTISVDTSKNQFSLKLSSVTAADTAVYYCAREDVILRGGSDYWGQGTLVTVSS VL: SYELTQPPSVSVSPGQTASITCSGERLGDKYVSWYQQKPGQSPVLVIYEDFKRPSGIPERFSGSNSGDTATLTISGTQPMDEADYYCQAWDRDTGVFGYGTKVTVL"
3.41,–,–,0.14,"E9-SE8 (antibody, V domains shown) VH: EVQLQESGPGLVKPGETLSLTCTVSGGSISSSSYYWGWIRQAPGKGLEWIGDIYYTGSTYYNPSLKSRVTISVDTSKNQFYLKLSSVRAEDTAVYYCAREDVILRGGSDYWGQGTLVTVSS VL: EYVLTQSPDFQSVTPKEKVTITCSGQRLGDKYASWYQQKPDQSPKLVIYEDSKRPSGVPSRFSGSNSGDDATLTINSLEAEDAATYYCQAWDRDTGVFGQGTKVEIKR"
